The source of these data is patent publication US20220241202A1, “METHOD AND VEHICLE FOR DELIVERING AGENTS ACROSS THE BLOOD-BRAIN BARRIER” (priority 2019, published 2022).

Where a chain is given by its changes, count along the chain named.

Data set [1] has as its system CAD cells. The experiment in a line: EV secretion of GFP-tagged 72Q huntingtin^exon1 from CAD cells with or without β amyloid peptide. It is filed as cell-based. Conditions: 12.5 μg/ml β amyloid peptide, added 6 hours after transfection, media collected at 48 hours. As to the method:
CAD cells were transiently transfected with GFP-tagged 72Q huntingtin^exon1 and a vector control, CSPα, DnaJB2long, or DnaJB6long. 6 hours after transfection, the cells were treated with 12.5 μg/ml β amyloid peptide (Aβ) or left untreated. 48 hours after transfection, the media was collected, EVs were prepared, and EV secretion of GFP-tagged 72Q huntingtin^exon1 was measured.

Data set [2] relates to CAD cells. The experiment in a line: Nanoscale flow cytometry of EVs secreted from CAD cells expressing GFP-72Q huntingtin^exon1. The class given is cell-based. As to the method:
(§1) Cell lines were transfected with the molecular chaperone CSPα and a GFP-tagged protein. CAD cells (catecholaminergic derived CNS cells) were the cell line utilized. Other cell lines, including patient-derived cell lines, may also be utilized. cDNAs encoding for myc-tagged CSPα or vector alone and GFP-72Q huntingtin^exon1 were transiently transfected with Lipofectamine™ 3000 (Invitrogen) in Opti-MEM™ medium. Media was changed to serum-free media 6 hours post-transfection. Media was collected 48 hours after transfection, spun at 300×g for 5 min to remove cell debris and evaluated without further processing by nanocyte tracking analysis, nanoscale flow cytometry analysis and dot blot analysis. For western blot analysis, EVs were isolated from the unfractionated media by exoquick precipitation solution (SBI) and solubilized in sample buffer. Following media collection, cell viability was determined using an XTT assay (New England Biolabs). When resveratrol was used, it was added to the serum-free media 6 hours post-transfection at the time of the media change.
For NTA and nanoscale flow cytometry analysis, all samples were diluted 25 fold using 0.2× phosphate buffered saline that had been filtered twice through 0.2 μm filter. For NTA analysis, all samples were analyzed using the Nanosight LM10 (405 nm laser, 60 mW, software version 3.00064). Samples were analyzed in triplicate for 60 seconds per replicate with a count range of 20-100 particles per frame. A variety of NIST (Thermo Scientific 3000 Series) standards were analyzed, each the day prior to sample analysis. The system was cleaned between each sample and checked for any sample carryover using the PBS diluent. NTA measures EVs within a size range from about 30 nm to about 1,000 nm.
Samples were similarly prepared for nanoscale flow cytometry as for NTA. All samples were analyzed using the Apogee A50 flow cytometry platform. Light scatter was provided using the 405 nm laser (75 mW); GFP signal was generated using the 488 nm laser (50 mW, 535/35) and far red signal was generated using the 630 nm laser (75 mW, 680/35). All samples were analyzed for 60 seconds. Optimization was performed to insure single EVs were being analyzed and single events were triggered by light scatter only. The system was cleaned each day prior to sample analysis and a variety of silica and polystyrene standards (Apogee 1493 standards) processed for instrument set up and QC. The silica standards were used to assess the relative size range of EVs. Nanoscale flow cytometry measures EVs within a size range from about 100 nm to about 1,300 nm. […]

Data set [3] concerns CAD cells. The experiment in a line: Cell viability after media collection (XTT assay). The settings on record: various levels of CSPα expression. The class given is cell-based. As to the method:
as §1
For orientation: Tetrazolium dyes change colour on reduction, which living cells bring about.

Data set [4] has as its system naive CAD cells. The experiment in a line: EV delivery of GFP-72Q huntingtin^exon1 cargo to naive recipient CAD cells (live cell fluorescence imaging). Conditions: conditioned media applied to naive cells; imaged 1-48 hours. The class given is cell-based. As for the experimental part: Images of live cells were taken with the EVOS FL Auto Imaging System. Images of donor cells were taken at the time of media collection. Images of recipient cells were taken between 1-48 hours. The intensity of the GFP-72Q huntingtin^exon1 varied among cells and a single slider was used until the on-screen brightness of the lowest intensity aggregate was satisfactory and used this setting to capture images in high-quality mode. Where indicated, after the 300×g for 5 minutes conditioned media spin to remove cell debris, 60 μl of Exo-Red (SBI) was incubated with 1 ml media containing EVs for 10 minutes at 37° C. to label the RNA EV cargo. 150 μl of exo-quick was added, the labelled EVs were placed on ice for 30 min and then centrifuged for 3 minutes at 20,000×g. The labelled EV pellet was resuspended in 1 ml of DMEM-F12 media and applied to target cells.

The conditions of data set [5]: previously shown; cited from earlier work.
Setting [6] is: cells express the protein, p<0.0001.
The mark [7] stands for this setting: presence of CSPα, no resveratrol.

For “β amyloid peptide: β amyloid peptide (Aβ, AggreSure™ obtained from AnaSpec)”, the “secretion of GFP-tagged 72Q huntingtin^exon1 by CSPα, DnaJB2long and DnaJB6long” value in data set [1] is “increased the secretion of GFP-tagged 72Q huntingtin^exon1”.

B1: CSPα: cysteine string protein alpha, DnaJ domain-containing protein chaperone, myc-tagged, expressed in CAD cells (protein, UniProt Q9H3Z4 1-198, looked up)
DnaJ homolog subfamily C …: MADQRQRSLSTSGESLYHVLGLDKNATSDDIKKSYRKLALKYHPDKNPDNPEAADKFKEINNAHAILTDATKRNIYDKYGSLGLYVAEQFGEENVNTYFVLSSWWAKALFVFCGLLTCCYCCCCLCCCFNCCCGKCKPKAPEGEETEFYVSPEDLEAQLQSDEREATDTPIVIQPASATETTQLTADSHPSYHTDGFN
modifications: myc tag
notes: cysteine string protein alpha, DnaJ domain-containing protein chaperone, myc-tagged, expressed in CAD cells
For B1, in data set [2] (setting [6]), the “Secretion of EVs containing GFP-tagged 72Q huntingtin^exon1” value is listed as “dramatically increased” and the “percentage of EVs containing GFP-72Q huntingtin^exon1 within the total EV pool” value is recorded as “dramatically increased”. Moreover, the “increase of export of EVs containing GFP-72Q huntingtin^exon1 within the 180-240 nm subpopulation” value in data set [2] (p<0.0001) is on record as > 400%. Also, in data set [2] (setting [7]), the “EVs containing GFP cargo within the 180-240 nm subpopulation” value is reported as 1%, the “EVs containing GFP cargo within the <180 nm subpopulation” value is 0.06% and the “EVs containing GFP cargo within the >240 nm subpopulation” value is 1.6%. Further, the “180-240 nm EV export of GFP-72Q huntingtin^exon1 as a function of cellular CSPα expression” value in data set [2] (various levels of CSPα, parallel western blot) was “correlates with increases in 180-240 nm EV export”. In addition, the “Cell viability after media collection” value in data set [3] was “not influenced”.

B2: CSPαHPD-AAA: loss-of-function CSPα mutant that does not interact with Hsp70 ATPases (protein, UniProt Q9H3Z4 1-198, looked up, variant H43A P44A D45A)
DnaJ homolog subfamily C …: B1 DnaJ homolog subfamily C … with H43A, P44A, D45A
As for B2, the “GFP-72Q huntingtin^exon1 cargo / aggregates in recipient CAD cells after media application” value in data set [4] was “low levels of GFP signal at 24 hours”. For the same molecule, in data set [5], the “export of GFP-72Q huntingtin^exon1” value is “does not”.
